Assay [1] has as its system cancer, cardiac and neuronal cell lines. The assay can be described thus: Categorisation of active ADPs as pro-/anti-apoptotic (Example 15). The conditions noted are these: criteria of Example 15.
A short description of assay [2]: Effectiveness of ADPs (Example 1, Table 6; cell death assays of FIGS. 10-13). The assay is classed as cell-based. Conditions: ADPs with N-terminal tumor penetrating peptide and C-terminal fluorescent tag; graded in words. An excerpt:
FIGS. 10A-C show the sequences mapped, peptide blots, imaging to show expression and cell death assays for these three peptides. A) PPA-1 (PEPTIDE23) (SEQ ID NO:23), B) PPA4 (PEPTIDE19) (SEQ ID NO:19), C) PPA10 (PEPTIDE16 including FF at C-terminus) (SEQ ID NO:16).
FIGS. 11A-B show the sequences mapped, peptide blots, imaging to show expression and cell death assays for these HSP-70 peptides. A) PHA4 (PEPTIDE5) (SEQ ID NO:5), B) PHA5 (PEPTIDE13 plus C-terminal L) (SEQ IDS NO: 13).
FIGS. 12A-C show the sequences mapped, peptide blots, imaging to show expression and cell death assays for these p65 (RELA) peptides. A) PRA1 (PEPTIDE14) (SEQ ID NO:14), B) PRA8 (PEPTIDE8) (SEQ ID NO:8), C) PRA9 (SEQ ID Nos:33 and 37-45).
FIGS. 13A-D show the sequences mapped, peptide blots, imaging to show expression and cell death assays for these HSP-70 peptides. A) PAA1-1 (PEPTIDE11) (SEQ ID NO:11), B) PPA1-3 (PEPTIDE15) (SEQ ID NO:15), C) PAR1 (PEPTIDE19), D) Paint 1 (PEPTIDE7) (SEQ ID NO:7).
ADPs were first identified using Peptide SPOT analysis. Peptides were identified from AKIP1. PKAc, HSP-70 and p65 sequences. The identified ADPs were attached at the N-terminus to tumor penetrating peptide based on the CENDR rule (FIG. 9). A fluorescent tag was attached to the C-terminus for ease of visualization. […]

B1: KSQVISNAKNTVQGFKRFHGRAFSDPFVEAEKSNLAYDIVQWPTGLTGIKVTYMEEERNFTTEQVTAMLLSKLKETAESVLKKPVV (peptide)
chain: KSQVISNAKNTVQGFKRFHGRAFSDPFVEAEKSNLAYDIVQWPTGLTGIKVTYMEEERNFTTEQVTAMLLSKLKETAESVLKKPVV
As for B1, the “Pro-apoptotic (anti-angiogenic) category” value in assay [1] was “Pro-apoptotic (anti-angiogenic)”.

B2: KSQVISNAKNTVQGFKRFHGRAFSDPFVEAEKSNLAYDIVQWPTGLTGIKVTYMEEERNFTIEQVTAMLLSKLKETAESVLKKPVV (peptide)
chain: KSQVISNAKNTVQGFKRFHGRAFSDPFVEAEKSNLAYDIVQWPTGLTGIKVTYMEEERNFTIEQVTAMLLSKLKETAESVLKKPVV
As for B2, the Effectiveness result in assay [2] is “Moderate”.

(Values after patent US11608367B2, “Peptides for angiogenic therapy” (The Regents of the University of California, priority 2018, dated 2023).)
